Reference: patent US20180155413A1 (AstraZeneca / MedImmune, published 2018)

What was measured:
Experiment in all cases: cell-based or functional assay
[1] = molecular target: HA of A/Bolivia/559/2013 (H1N1) (influenza A virus)
[2] = molecular target: HA of B/Malaysia/2506/2004 (victoria) (influenza B virus)
[3] = molecular target: HA of B/New Jersey/01/2012 (victoria) (influenza B virus)
[4] = molecular target: HA of A/Hong Kong/2212/2010 (H1N1) (influenza A virus)
[5] = molecular target: HA of A/AmericanSomoa/4786/2013 (H3N2) (influenza A virus)
[6] = molecular target: HA of A/California/7/2004 (H3N2) (influenza A virus)
[7] = molecular target: HA of A/Texas/50/2012 (H3N2) (influenza A virus)
[8] = molecular target: HA of B/Yamanashi/166/98 (yamagata) (influenza B virus)
[9] = molecular target: HA of B/Sichuan/379/99 (yamagata) (influenza B virus)
[10] = molecular target: HA of B/Arizona/8/2013 (yamagata) (influenza B virus)
[11] = molecular target: HA of A/Brisbane/10/2010 (H1N1) (influenza A virus)
[12] = molecular target: HA of ca B/Brisbane/60/2008 (victoria) (influenza B virus)
[13] = molecular target: HA of B/Lee/40 (influenza B virus, UniProt P03460 16-584)
Chain of HA of B/Lee/40 (P03460 16-584 limits assumed): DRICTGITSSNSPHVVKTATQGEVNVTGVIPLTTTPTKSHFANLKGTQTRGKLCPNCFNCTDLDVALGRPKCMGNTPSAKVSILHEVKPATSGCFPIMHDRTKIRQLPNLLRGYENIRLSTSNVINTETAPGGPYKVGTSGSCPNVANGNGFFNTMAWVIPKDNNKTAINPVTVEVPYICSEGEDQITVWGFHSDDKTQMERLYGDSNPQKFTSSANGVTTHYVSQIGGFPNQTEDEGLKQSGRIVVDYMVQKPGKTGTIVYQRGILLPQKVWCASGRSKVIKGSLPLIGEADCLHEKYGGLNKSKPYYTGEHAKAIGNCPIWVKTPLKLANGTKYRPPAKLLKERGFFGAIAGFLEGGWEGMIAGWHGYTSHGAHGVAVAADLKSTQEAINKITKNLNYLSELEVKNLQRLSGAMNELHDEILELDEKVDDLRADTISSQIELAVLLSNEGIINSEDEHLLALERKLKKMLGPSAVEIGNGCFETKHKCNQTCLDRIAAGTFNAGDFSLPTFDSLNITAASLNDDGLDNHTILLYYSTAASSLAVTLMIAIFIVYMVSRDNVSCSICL

[14] = molecular target: HA of B/Wisconsin/1/2010 (yamagata) (influenza B virus)
[15] = molecular target: HA of B/Florida/4/2006 (yamagata) (influenza B virus)
[16] = molecular target: HA of B/Texas/2/2013 (victoria) (influenza B virus)
[17] = molecular target: HA of ca A/chicken/Hong Kong/G9/97 (H9N2) (influenza A virus)
[18] = molecular target: HA of A/Victoria/361/2011 (H3N2) (influenza A virus)
[19] = molecular target: HA of ca B/Georgia/02/98 (yamagata) (influenza B virus)
[20] = molecular target: HA of A/Wilson Smith N/33 (H1N1) (influenza A virus, UniProt P03454 18-565)
Chain of HA of A/Wilson Smith N/33 (H1N1) (P03454 18-565 limits assumed): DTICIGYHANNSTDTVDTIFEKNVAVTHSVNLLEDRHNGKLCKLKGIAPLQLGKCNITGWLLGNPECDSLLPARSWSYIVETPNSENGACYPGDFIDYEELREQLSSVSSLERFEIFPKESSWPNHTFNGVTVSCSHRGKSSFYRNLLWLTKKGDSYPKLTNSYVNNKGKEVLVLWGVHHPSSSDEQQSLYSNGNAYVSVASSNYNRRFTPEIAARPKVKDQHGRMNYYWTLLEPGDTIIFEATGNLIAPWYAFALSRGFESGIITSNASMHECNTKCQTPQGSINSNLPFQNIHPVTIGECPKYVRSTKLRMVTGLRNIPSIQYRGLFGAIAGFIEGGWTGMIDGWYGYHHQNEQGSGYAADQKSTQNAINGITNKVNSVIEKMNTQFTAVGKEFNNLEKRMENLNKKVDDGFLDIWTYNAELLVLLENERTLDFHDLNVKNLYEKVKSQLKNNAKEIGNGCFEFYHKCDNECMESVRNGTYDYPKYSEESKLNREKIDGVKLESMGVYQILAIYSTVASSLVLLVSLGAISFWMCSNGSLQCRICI

[21] = molecular target: HA of B/Hong Kong/5/72 (influenza B virus)
[22] = molecular target: HA of ca B/Beijing/243/97 (victoria) (influenza B virus)
[23] = molecular target: HA of ca B/Ann Arbor/1/66 (influenza B virus)
[24] = molecular target: HA of A/New York/39/2012 (H3N2) (influenza A virus)
[25] = molecular target: HA of B/Ohio/1/2005 (victoria) (influenza B virus)
[26] = molecular target: HA of B/Yamagata/16/88 (yamagata) (influenza B virus)
[27] = molecular target: HA of B/Nevada/3/2011 (victoria) (influenza B virus)
[28] = molecular target: HA of B/Wisconsin/5/2013 (victoria) (influenza B virus)
[29] = molecular target: HA of B/Hong Kong/330/2001 (victoria) (influenza B virus)
[30] = molecular target: HA of ca B/Victoria/504/2000 (yamagata) (influenza B virus)
[31] = molecular target: HA of B/Phuket/3073/2013 (yamagata) (influenza B virus)
[32] = molecular target: HA of ca B/Brisbane/60/2008 (victoria) (influenza B virus); remark: listed apart in the source
[33] = molecular target: HA of B/Florida/4/2006 (yamagata) (influenza B virus); remark: listed apart in the source
[34] = molecular target: HA of B/Hong Kong/5/72 (influenza B virus); remark: listed apart in the source
[35] = molecular target: HA of B/Shanghai/361/02 (yamagata) (influenza B virus)
[36] = molecular target: HA of ca B/Ann Arbor/1/66 (influenza B virus); remark: listed apart in the source
[37] = molecular target: HA of ca B/Ann Arbor/2/94 (yamagata) (influenza B virus)
[38] = molecular target: HA of ca B/Victoria/504/2000 (yamagata) (influenza B virus); remark: listed apart in the source
[39] = molecular target: HA protein derived from A/South Dakota/6/2007 H1N1, on stably transfected MDCK cells (influenza A virus)
[40] = molecular target: HA of A/Hong Kong/8/68 (H3N2) (influenza A virus)
[41] = molecular target: HA of A/California/07/2009 (H1N1) (influenza A virus)
[42] = molecular target: HA protein derived from A/Hong Kong/8/68 H3N2, on stably transfected MDCK cells (influenza A virus)

B1: GL20/39 BiS4 100/44 (bispecific antibody)
light: DIQMTQSPSSLSASVGDRVTITCRTSQSLSSYTHWYQQKPGKAPKLLIYAASSRGSGVPSRFSGSGSGTDFTLTISSLQPEDFATYYCQQSRTFGQGTKVEIKRTVAAPSVFIFPPSDEQLKSGTASVVCLLNNFYPREAKVQWKVDNALQSGNSQESVTEQDSKDSTYSLSSTLTLSKADYEKHKVYACEVTHQGLSSPVTKSFNRGEC
heavy: not shown
- Neutralization (IC50) [1]: 0.9 nM
- Neutralization (IC50) [2]: 33 nM
- Neutralization (IC50) [3]: 23 nM
- Neutralization (IC50) [4]: 0.4 nM
- Neutralization (IC50) [5]: 0.8 nM
- Neutralization (IC50) [6]: 10.5 nM
- Neutralization (IC50) [7]: 3.1 nM
- Neutralization (IC50) [8]: 0.3 nM
- Neutralization (IC50) [9]: 12.1 nM
- Neutralization (IC50) [10]: 2.2 nM
- Neutralization (IC50) [11]: 9.8 nM
- Neutralization (IC50) [12]: 51.8 nM
- Neutralization (IC50) [13]: 1 nM
- Neutralization (IC50) [14]: 4.4 nM
- Neutralization (IC50) [15]: 1.4 nM
- Neutralization (IC50) [16]: 13.8 nM
- Neutralization (IC50) [17]: 1.6 nM
- Neutralization (IC50) [18]: 5.2 nM
- Neutralization (IC50) [19]: 1 nM
- Neutralization (IC50) [20]: 9.5 nM
- Neutralization (IC50) [21]: 5.7 nM
- Neutralization (IC50) [22]: 25.9 nM
- Neutralization (IC50) [23]: 12.8 nM
- Neutralization (IC50) [24]: 0.5 nM
- Neutralization (IC50) [25]: 18.7 nM
- Neutralization (IC50) [26]: 1.3 nM
- Neutralization (IC50) [27]: 38.2 nM
- Neutralization (IC50) [28]: 14.5 nM
- Neutralization (IC50) [29]: 66.9 nM
- Neutralization (IC50) [30]: 1.3 nM
- Neutralization (IC50) [31]: 15.4 nM
- Hemagglutination Inhibition Titer [32]: 244 nM
- Hemagglutination Inhibition Titer [33]: 61 nM
- Hemagglutination Inhibition Titer [34]: 244 nM
- Hemagglutination Inhibition Titer [35]: 91 nM
- Hemagglutination Inhibition Titer [36]: 244 nM
- Hemagglutination Inhibition Titer [37]: 61 nM
- Hemagglutination Inhibition Titer [38]: 61 nM

B2: GL20 IgG (antibody, V domains shown)
VH: QVQLQQSGPGLVKPSQTLSLTCAISGDSVSSYNAVWNWIRQSPSRGLEWLGRTYYRSGWYNDYAESVKSRITINPDTSKNQFSLQLNSVTPEDTAVYYCARSGHITVFGVNVDAFDMWGQGTMVTVSS
VL: DIQMTQSPSSLSASVGDRVTITCRTSQSLSSYTHWYQQKPGKAPKLLIYAASSRGSGVPSRFSGSGSGTDFTLTISSLQPEDFATYYCQQSRTFGQGTKVEIK
- Neutralization (IC50) [1]: 0.9 nM
- Neutralization (IC50) [5]: 0.9 nM
- Neutralization (IC50) [6]: 14.2 nM
- Neutralization (IC50) [7]: 4.8 nM
- Neutralization (IC50) [11]: 10.5 nM
- Neutralization (IC50) [18]: 5.7 nM
- Neutralization (IC50) [20]: 7.6 nM
- EC50 (read off the curve), ADCP % double positive [39]: ~0.04 nM
- ADCC: NK cell killing of infected A549 cells (LDH release), IC50 [40]: 0.018 nM
- ADCC: NK cell killing of infected A549 cells (LDH release), IC50 [41]: 0.024 nM
- EC50 (read off the curve), ADCP % double positive [42]: ~0.04 nM
